Results on one protein are retold here after paper PMC2172667 (The Journal of Cell Biology, 2003).

The data set deals with the molecule itself. In words: AUC + SEC.

B1: his-EPLIN-α (natural protein)
chain: MENCLGESRHEVEKSEISENTDASGKIEKYNVPLNRLKMMFEKGEPTQTKILRAQSRSASGRKISENSYSLDDLEIGPGQLSSSTFDSEKNESRRNLELPRLSETSIKDRMAKYQAAVSKQSSSTNYTNELKASGGEIKIHKMEQKENVPPGPEVCITHQEGEKISANENSLAVRSTPAEDDSRDSQVKSEVQQPVHPKPLSPDSRASSLSESSPPKAMKKFQAPARETCVECQKTVYPMERLLANQQVFHISCFRCSYCNNKLSLGTYASLHGRIYCKPHFNQLFKSKGNYDEGFGHRPHKDLWASKNENEEILERPAQLANARETPHSPGVEDAPIAKVGVLAASMEAKASSQQEKEDKPAETKKLRIAWPPPTELGSSGSALEEGIKMSKPKWPPEDEISKPEVPEDVDLDLKKLRRSSSLKERSRPFTVAASFQSTSVKSPKTVSPPIRKGWSMSEQSEESVGGRVAERKQVENAKASKKNGNVGKTTWQNKESKGETGKRSKEGHSLEMENENLVENGADSDEDDNSFLKQQSPQEPKSLNWSSFVDNTFAEEFTTQNQKSQDVELWEGEVVKELSVEEQIKRNRYYDEDEDEE
For the protein B1, the stoichiometry N (as a rule, a count of units in the complex or per binding partner) is ~8 polypeptides.
